Columns and labels:
[1] = biological target: T1, cynomolgus monkey FOLR1 (on JTC-12 cells) (cynomolgus monkey, UniProt P15328 25-234 (human entry)); test: flow cytometry on cynomolgus monkey kidney-derived cell line JTC-12
T1 construct: Endogenous FOLR1 of the cynomolgus monkey kidney-derived cell line JTC-12; also called CyFOLR1
Procedure: Subsequently, the cells were seeded in a 96-well plate at a density of 2×10⁵ cells/well, followed by centrifugation at 1500 rpm for 1 minute. After the supernatant was discarded, 50 μL of RA15-7 culture supernatant was added to each well, and allowed to react at 4° C. for 30 minutes.
Cells were washed, and then Alexa488-labeled anti-rat IgG(H+L) polyclonal antibody (Invitrogen) diluted in 1% BSA/PBS was added thereto, and they were allowed to react at 4° C. for 30 minutes. The cells were washed again, and then suspended in 1% BSA/PBS, and fluorescent intensity was analyzed by flow cytometry.
In the same manner, the reactivity of the RA15-7 culture supernatant to cynomolgus monkey kidney-derived cell line JTC-12 (RCB1485, RIKEN CELL BANK) was also analyzed by flow cytometry.

[2] = biological target: T2, FOLR1-mycHis (human, UniProt P15328 25-233); test: SPR (Biacore T100), antibody of the supernatant captured on CM5 chip, FOLR1-mycHis as analyte, single-cycle kinetics, 1:1 binding model
T2 construct: Secreted from CHO/DG44 cells, purified on Ni-NTA; Residues 1-233 include the native signal peptide; also called non-reducing FOLR1-mycHis; recombinant protein having myc and His tag at the C-terminus of FOLR1 (1-233 amino acids); not shown: myc and His tag at the C-terminus
Excerpt: After cloning, the hybridoma culture supernatant was used to measure its affinity for FOLR1 by a surface plasmon resonance method. As instruments for measurement, Biacore T100 (GE Healthcare), and CM5 chip (GE Healthcare) were used. First, Mouse Antibody Capture Kit (GE Healthcare) was immobilized onto the CM5 chip by amine coupling.
Subsequently, the hybridoma culture supernatant was applied using HBS-EP+buffer (GE Healthcare), and the antibodies contained in the supernatant were captured on the CM5 chip. Subsequently, FOLR1-mycHis prepared by five-step dilution (188, 375, 750, 1500, 3000 ng/mL) was applied as an analyte.
(§1) The affinity was analyzed from association constant (Ka) and dissociation constant (Kd) by Single-cycle kinetics. Kinetic constants (ka, kd, KD) were calculated by 1:1 binding model using a Biacore T-100 Evaluation software (GE Healthcare).

[3] = biological target: T3, cynomolgus monkey FOLR1-Fc (cynomolgus monkey; human); test: ELISA: antibody captured by anti-rat IgG, Fc fusion added, anti-human IgG-POD
T3 construct: Expressed in CHO/Ms704 cells; also called CyFOLR1-Fc; not shown: Human IgG1 Fc (Hinge region and CH2-CH3 region) from pKANTEX93, added to the C-terminus
Procedure: Each well was washed with PBS, and then 100 μL/well of 1% BSA/PBS was added at room temperature for 1 hour for blocking. Each well was washed with PBS again, and 50 μL/well of the RA15-7 culture supernatant was added, and allowed to react at room temperature for 1 hour. Each well was washed with 0.05% tween20/PBS, and 50 μL/well of FOLR1-Fc, FOLR2-Fc, FOLR3-Fc, and cynomolgus monkey FOLR1-Fc which were diluted in 1% BSA/PBS were added, and allowed to react at room temperature for 1 hour.
Each well was washed with 0.05% tween20/PBS, and then 50 μL/well of Goat anti-human IgG(H+L)-POD (American Qualex) which was diluted 2000-fold in 1% BSA/PBS was added and allowed to react at room temperature for 1 hour. Each well was washed with PBS, and then 50 μL/well of ABTS substrate solution was added, and allowed to react at room temperature. After sufficient color development was confirmed, 50 μL/well of 5% SDS solution was added to terminate the reaction, and absorbance at 415 nm was measured.

[4] = biological target: T4, Rat2-FOLR1-mycHis (human with a rat segment); test: ELISA, antigen coated at 10 µg/mL; x indicates that no reaction occurred
T4 construct: also called rat/human chimeric FOLR1-mycHis (human 55-62 replaced by rat 53-60)

[5] = biological target: T5, Rat4-FOLR1-mycHis (human with a rat segment); test: ELISA, antigen coated at 10 µg/mL, antibody 14-10000 ng/mL; white circle indicates that reaction occurred
T5 construct: also called rat/human chimeric FOLR1-mycHis (human 91-95 replaced by rat 89-93)
Procedure: (§2) First, each 50 μL/well of FOLR1-mycHis, Rat1-FOLR1-mycHis, Rat2-FOLR1-mycHis, and Rat4-FOLR1-mycHis which were prepared at a concentration of 10 μg/mL using PBS was […] in a 96-well plate for ELISA, and then incubated at 4° C. overnight. Each well was washed with PBS, and then 200 μL/well of 1% BSA/PBS was added at room temperature for 1 hour for blocking.

[6] = biological target: T2, FOLR1-mycHis; test: SPR (Biacore T100), antibody captured with Human Antibody Capture Kit, FOLR1-mycHis as analyte, 1:1 binding model
Procedure: as §1
(§3) The affinities of ChRA15-7Acc antibody and MORAb-003 antibody for FOLR1 were measured by a surface plasmon resonance method. The measurement was carried out in the same manner as in Example 16, except that a Human Antibody Capture Kit (GE Healthcare) was immobilized onto the CM5 chip by amine coupling and FOLR1-mycHis prepared by five-step dilution (12.3, 37, 111, 333, 1000 ng/mL) was applied as an analyte.

[7] = biological target: T2, FOLR1-mycHis; test: SPR as in Example 29, antibody captured, FOLR1-mycHis as analyte, 1:1 binding model
Procedure: as §3
In the same manner as in Example 29, affinity of HuRA15-7CTAcc antibody for FOLR1 was measured by the surface plasmon resonance method.

[8] = biological target: T4, Rat2-FOLR1-mycHis; test: ELISA as in Example 35, antigen coated; x indicates that no reaction occurred
Procedure: as §2
(§4) In the same manner as in Example 35, reactivities of ChRA15-7Acc antibody, MORAb-003 antibody, MOv18 antibody, and HuRA15-7CTAcc antibody were evaluated using FOLR1-mycHis prepared in Example 11 and Rat1-FOLR1-mycHis, Rat2-FOLR1-mycHis, Rat4-FOLR1-mycHis prepared in Example 34.

[9] = biological target: T5, Rat4-FOLR1-mycHis; test: ELISA as in Example 35, antigen coated; white circle indicates that reaction occurred
Procedure: as §2, §4

T2 sequence (P15328 25-233): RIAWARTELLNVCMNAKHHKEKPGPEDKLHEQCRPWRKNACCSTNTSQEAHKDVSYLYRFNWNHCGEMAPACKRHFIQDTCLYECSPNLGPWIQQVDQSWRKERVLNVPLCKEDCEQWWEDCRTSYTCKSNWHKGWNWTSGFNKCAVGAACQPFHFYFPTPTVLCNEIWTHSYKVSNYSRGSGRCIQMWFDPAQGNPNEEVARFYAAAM
T5 sequence (chain, as listed by the source limits assumed): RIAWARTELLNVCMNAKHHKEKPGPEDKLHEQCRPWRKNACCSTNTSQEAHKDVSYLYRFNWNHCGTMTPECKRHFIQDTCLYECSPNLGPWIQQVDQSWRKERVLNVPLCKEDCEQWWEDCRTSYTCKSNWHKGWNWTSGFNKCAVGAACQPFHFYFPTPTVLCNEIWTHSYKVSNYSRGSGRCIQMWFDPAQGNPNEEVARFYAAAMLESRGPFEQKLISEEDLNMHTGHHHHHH
T4 sequence (chain, as listed by the source limits assumed): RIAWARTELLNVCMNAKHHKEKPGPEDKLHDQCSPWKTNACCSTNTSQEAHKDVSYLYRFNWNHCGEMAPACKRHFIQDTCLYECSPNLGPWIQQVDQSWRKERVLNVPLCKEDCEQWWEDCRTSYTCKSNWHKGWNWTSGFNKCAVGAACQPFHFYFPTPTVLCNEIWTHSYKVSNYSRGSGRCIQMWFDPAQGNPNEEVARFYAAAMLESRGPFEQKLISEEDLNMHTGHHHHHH
T1 sequence (P15328 other isoform, or with tags, fused parts or gaps limits assumed): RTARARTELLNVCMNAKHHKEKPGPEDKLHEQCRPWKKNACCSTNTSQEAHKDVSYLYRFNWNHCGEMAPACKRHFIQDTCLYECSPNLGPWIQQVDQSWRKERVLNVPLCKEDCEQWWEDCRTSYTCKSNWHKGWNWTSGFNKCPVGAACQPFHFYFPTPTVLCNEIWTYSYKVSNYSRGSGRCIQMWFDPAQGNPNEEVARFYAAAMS
T3 sequence (chain, as listed by the source): as the sequence (P15328 25-233) above, with I2T, W4R, R37K, A146P, H171Y counted along it

B1: RA15-7 antibody (antibody, V domains shown)
VH: EVKLLESGGGLVQPGGSMRLSCAASGFTFTDFYMNWIRQPAGKAPEWLGFIRNKANGYTTEFNPSVKGRFAISRDNTQNMLYLQMNTLRAEDTATYYCARCLYGYAYYYVMDAWGQGTSVTVSS
VL: DIQMTQSPASLSASLGETVTIECRTSEDIFRNLAWYQQRPGNSPQLLIYDTNRLADGVPSRFSGSGSGTQYSLKINSLQSEDVAGYFCQQYDNYPLTFGSGTKLEIK
notes: also called antibody contained in the RA15-7 culture supernatant; culture supernatant of hybridoma RA15-7 clone
binding result [1]: binds
Kd [2]: 1900 pM
binding result [3]: binds

B2: ChRA15-7Acc antibody (antibody, human IgG1, V domains shown)
VH: EVKLLESGGGLVQPGGSMRLSCAASGFTFTDFYMNWIRQPAGKAPEWLGFIRNKANGYTTEFNPSVKGRFAISRDNTQNMLYLQMNTLRAEDTATYYCARCLYGYAYYYVMDAWGQGTSVTVSS
VL: DIQMTQSPASLSASLGETVTIECRTSEDIFRNLAWYQQRPGNSPQLLIYDTNRLADGVPSRFSGSGSGTQYSLKINSLQSEDVAGYFCQQYDNYPLTFGSGTKLEIK
notes: Defucosylated, made in CHO/Ms704 cells; also called CDC enhancement technology-applied defucosylated ChRA15-7; rat/human chimeric RA15-7
binding result [4]: no binding (tested: up to 10000 ng/mL)
binding result [5]: binds
Kd [6]: 570 pM
koff [6]: 0.001 s⁻¹

B3: HuRA15-7CTAcc antibody (antibody, human IgG1, V domains shown)
VH: EVQLVESGGGLVQPGGSLRLSCAASGFTFTDFYMNWVRQPPGKAPEWLGFIRNKANGYTTEFNPSVKGRFTISRDNSKNSLYLQMNSLKTEDTATYYCARTLYGYAYYYVMDAWGQGTLVTVSS
VL: DIQMTQSPSSLSASLGDRVTITCRTSEDIFRNLAWYQQKPGKAPKLLIYDTNRLADGVPSRFSGSGSGTDYTLTISSLQPEDFATYFCQQYDNYPLTFGQGTKLEIK
notes: Defucosylated, made in CHO/Ms704 cells; also called CDC enhancement technology-applied defucosylated HuRA15-7CT
Kd [7]: 650 pM
koff [7]: 0.00108 s⁻¹
binding result [8]: no binding (tested: up to 10000 ng/mL)
binding result [9]: binds

Reference: patent US20160060340A1 (Kyowa Kirin, published 2016)
